Common to all, as to assay type: biochemical
Assay [1] can be described thus: Carboxylate reductase activity assay, pimelate to pimelate semialdehyde. Particulars: 2 mM pimelate, 1 mM ATP, 1 mM NADPH, enhanced by sfp gene product, room temperature, 20 min; against empty vector control (FIG. 10). The protocol:
A sequence encoding a HIS-tag was added to the genes from Segniliparus rugosus and Segniliparus rotundus that encode the carboxylate reductases of SEQ ID NOs: 4 and 7, respectively (see FIGS. 7C and 7F), such that N-terminal HIS tagged carboxylate reductases could be produced. Each of the modified genes was cloned into a pET Duet expression vector along with a sfp gene encoding a HIS-tagged phosphopantetheine transferase from Bacillus subtilis, both under the T7 promoter. Each expression vector was transformed into a BL21[DE3] E. coli host and the resulting recombinant E. coli strains were cultivated at 37° C. in a 250 mL shake flask culture containing 50 mL LB media and antibiotic selection pressure, with shaking at 230 rpm. Each culture was induced overnight at 37° C. using an auto-induction media.
The pellet from each induced shake flask culture was harvested via centrifugation. Each pellet was resuspended and lysed via sonication, and the cell debris was separated from the supernatant via centrifugation. […]
Enzyme activity assays (i.e., from pimelate to pimelate semialdehyde) were performed in triplicate in a buffer composed of a final concentration of 50 mM HEPES buffer (pH=7.5), 2 mM pimelate, 10 mM MgCl, 1 mM ATP and 1 mM NADPH. […] The consumption of NADPH was monitored by absorbance at 340 nm.

Assay [2] is described as follows: Carboxylate reductase activity assay, N7-acetyl-7-aminoheptanoate to N7-acetyl-7-aminoheptanal. The note with it: 2 mM N7-acetyl-7-aminoheptanoate, 1 mM ATP, 1 mM NADPH, enhanced by sfp gene product, room temperature, 20 min; against empty vector control (FIG. 12). Here is the method:
The activity of each of the N-terminal His-tagged carboxylate reductases of SEQ ID NOs: 3, 6, and 7 (see Examples 4, and FIGS. 7B, 7E, and 7F) for converting N7-acetyl-7-aminoheptanoate to N7-acetyl-7-aminoheptanal was assayed in triplicate in a buffer composed of a final concentration of 50 mM HEPES buffer (pH=7.5), 2 mM N7-acetyl-7-aminoheptanoate, 10 mM MgCl2, 1 mM ATP, and 1 mM NADPH. The assays were initiated by adding purified carboxylate reductase and phosphopantetheine transferase or the empty vector control to the assay buffer containing the N7-acetyl-7-aminoheptanoate then incubated at room temperature for 20 min. The consumption of NADPH was monitored by absorbance at 340 nm.

Assay [3] can be described thus: Carboxylate reductase activity assay, pimelate semialdehyde to heptanedial. Particulars: 2 mM pimelate semialdehyde, 1 mM ATP, 1 mM NADPH, enhanced by sfp gene product, room temperature, 20 min; against empty vector control (FIG. 13). Here is the method: The N-terminal His-tagged carboxylate reductase of SEQ ID NO 7 (see Example 4 and FIG. 7F) was assayed using pimelate semialdehyde as substrate. The enzyme activity assay was performed in triplicate in a buffer composed of a final concentration of 50 mM HEPES buffer (pH=7.5), 2 mM pimelate semialdehyde, 10 mM MgCl2, 1 mM ATP and 1 mM NADPH. The enzyme activity assay reaction was initiated by adding purified carboxylate reductase and phosphopantetheine transferase or the empty vector control to the assay buffer containing the pimelate semialdehyde and then incubated at room temperature for 20 min. The consumption of NADPH was monitored by absorbance at 340 nm.

The record followed here is patent US9738911B2, “Methods of producing 7-carbon chemicals via pyruvate and succinate semialdehyde aldol condensation” (INVISTA North America S.a r.l., priority 2012, dated 2017).

B1: SEQ ID NO 7: Segniliparus rotundus carboxylate reductase (Genbank Accession No. ADG98140.1) (protein, listed as Segniliparus rotundus)
chain: MTQSHTQGPQASAAHSRLARRAAELLATDPQAAATLPDPEVVRQATRPGLRLAERVDAILSGYADRPALGQRSFQTVKDPITGRSSVELLPTFDTITYRELRERATAIASDLAHHPQAPAKPGDFLASIGFISVDYVAIDIAGVFAGLTAVPLQTGATLATLTAITAETAPTLFAASIEHLPTAVDAVLATPSVRRLLVFDYRAGSDEDREAVEAAKRKIADAGSSVLVDVLDEVIARGKSAPKAPLPPATDAGDDSLSLLIYTSGSTGTPKGAMYPERNVAHFWGGVWAAAFDEDAAPPVPAINITFLPLSHVASRLSLMPTLARGGLMHFVAKSDLSTLFEDLKLARPTNLFLVPRVVEMLYQHYQSELDRRGVQDGTREAEAVKDDLRTGLLGGRILTAGFGSAPLSAELAGFIESLLQIHLVDGYGSTEAGPVWRDGYLVKPPVTDYKLIDVPELGYFSTDSPHPRGELAIKTQTILPGYYKRPETTAEVFDEDGFYLTGDVVAQIGPEQFAYVDRRKNVLKLSQGEFVTLAKLEAAYSSSPLVRQLFVYGSSERSYLLAVIVPTPDALKKFGVGEAAKAALGESLQKIARDEGLQSYEVPRDFIIETDPFTVENGLLSDARKSLRPKLKEHYGERLEAMYKELADGQANELRDIRRGVQQRPTLETVRRAAAAMLGASAAEIKPDAHFTDLGGDSLSALTFSNFLHDLFEVDVPVGVIVSAANTLGSVAEHIDAQLAGGRARPTFATVHGKGSTTIKASDLTLDKFIDEQTLEAAKHLPKPADPPRTVLLTGANGWLGRFLALEWLERLAPAGGKLITIVRGKDAAQAKARLDAAYESGDPKLAGHYQDLAATTLEVLAGDFSEPRLGLDEATWNRLADEVDFISHPGALVNHVLPYNQLFGPNVAGVAEIIKLAITTRIKPVTYLSTVAVAAGVEPSALDEDGDIRTVSAERSVDEGYANGYGNSKWGGEVLLREAHDRTGLPVRVFRSDMILAHQKYTGQVNATDQFTRLVQSLLATGLAPKSFYELDAQGNRQRAHYDGIPVDFTAESITTLGGDGLEGYRSYNVFNPHRDGVGLDEFVDWLIEAGHPITRIDDYDQWLSRFETSLRGLPESKRQASVLPLLHAFARPGPAVDGSPFRNTVFRTDVQKAKIGAEHDIPHLGKALVLKYADDIKQLGLL
B1: the figures for the “substrate acceptance, consumption of NADPH by absorbance at 340 nm” value in assay [1], in assay [2] and in assay [3] were “accepted pimelate as substrate”, “accepted N7-acetyl-7-aminoheptanoate as substrate” and “accepted pimelate semialdehyde as substrate”, respectively.
